In assay [1] the target is T1, human FAP expressed on cells (transfected HEK293; FAP-CHO-K1 recombinant cell line, BPS cat no. 79947) (human, UniProt Q12884 1-760).
T1 construct: also called HuFAP-HEK293; Hek-FAP
Briefly: flow cytometry, human FAP-transfected HEK293 cells. Here is the method: The binding of antibodies to human FAP expressed on transfected HEK293 cells was measured by FACS. In addition, binding to parental HEK293 was tested to confirm antibody specificity. In short, the cells were resuspended in the FACS binding buffer and live/dead efluro450 viability dye was added at a 1:1000 dilution to the cell suspension, followed by incubation at room temperature in the dark for 30 minutes. The cells were then diluted to 2 e5/ml, and 100 ul was added to wells of a 96-well U-bottom plate as required. […] The cells were pelleted by centrifugation, and the supernatant was discarded, followed by the addition of a series of dilutions of anti-FAP antibodies and incubation for 45 minutes at 4° C. in the dark. Cells were washed two times with PBS with 3% (w/v) BSA before adding 60 ul of fluorescently labelled secondary antibody (goat anti-human IgG) diluted to 1:200 in PBS. Incubation continued at 4 C for at least 30 minutes, followed by two washes in PBS pH 7.4. Cells were either fixed with 2% PFA (30 minutes at 4° C.) followed by washout and storage in 100 ul of PBS or immediately analysed on a Flow Cytometer. The data was analysed using FloJo V10 and GraphPad Prism. No binding to the HEK parental cell line was detected for any tested clones, confirming the specific interaction between anti-FAP antibodies and the FAP receptor. The results are summarised in.

Assay [2] deals with Human FAP (Acro), recombinant protein (human, UniProt Q12884 26-760). The experiment in a line: SPR (Carterra LSA), antibody captured by anti-human Fc, FAP as analyte. As for the experimental part:
(§1) Binding of anti-FAP antibodies to human and cynomolgus FAP was investigated by Surface Plasmon Resonance (SPR) on Carterra LSA. An EC30M chip was used to capture the test antibodies. The chip was activated for bioconjugation using EDC and sNHS in MES pH 5.5 to prepare the chip for amine coupling. Goat anti-human IgG Fc antibody was then captured to the chip via incubation for 10 minutes. Excess conjugation sites were quenched with 1M Ethanolamine pH 8. To measure monovalent binding kinetics, antibodies were printed/spotted onto the chip and allowed to bind to the goat antibody, followed by subsequent washing. After the preparation, the printed chip was exposed to repeated rounds of association and dissociation with increasing analyte concentrations. In this work, recombinant proteins (Human FAP (Acro) or cyno FAP His (Acro)) were serially diluted across a range starting at 1500 nM with 3-fold dilutions and 10 points. The curves were fitted to global fit in a 1:1 binding model to obtain KD values. The binding affinity to both human and cynomolgus FAP is reported in.

Assay [3] addresses T2, cyno FAP His (Acro), recombinant protein (cynomolgus (Macaca fascicularis), UniProt Q12884 26-760 (human entry)).
T2 construct: bought protein used as analyte on Carterra LSA
The description is as above. Here is the method:
as §1

Assay [4] has as its target T3, mouse LTBR on cells (4T1 tumor cell line; primary mouse lung fibroblasts) (mouse, UniProt P50284 31-415). The experiment in a line: cell-based or functional assay.
Assay [5] deals with T3, mouse LTBR on cells (4T1 tumor cell …). Briefly: cell-based or functional assay. The source holds these as a separate data set.
In assay [6] the target is T4, human LTBR endogenously expressed on cells (HepG2, A549, A375, HCC1187, RPMI-7951, primary human breast CAFs) (human, UniProt P36941 31-435). The experiment in a line: cell-based or functional assay.
Assay [7] deals with T4, human LTBR endogenously expressed on …. Briefly: cell-based or functional assay. The source holds these as a separate data set.
Assay [8] has the same target. The experiment in a line: cell-based or functional assay. The source holds these as a separate data set.
Assay [9] shares this target. Briefly: cell-based or functional assay. This is another data set of the same source.
The target is the same in assay [10]. The experiment in a line: cell-based or functional assay. The source holds these as a separate data set.
Assay [11] has the same target. Briefly: flow cytometry, A549 cells. Here is the method: (§2) In short, 1×10⁶ cells were resuspended in the FACS buffer (1% BSA, 0.1% Sodium Azide in PBS), and 50 μl was added to each well (5×10⁴ cells/well) of a 96-U bottom plate. The cells were washed once and resuspended in 50 μl/well of FACS buffer containing a 1:3, 11-point series dilutions of constructs 4.1-4.6 and clones 4.8-4.9 followed by 1 h incubation at 4° C. […] Next, cells were washed and resuspended in FACS buffer and read on Beckman Coulter CytoFLEX. The data were analysed using FloJo V10 and GraphPad Prism v9. Clone 4.7 was tested for binding to A375 (LTBR positive cell line) and the HEK293-FAP overexpressing cell line, as described in examples 2.4 and 3.5. The EC50 values can be found in.
For orientation: In flow cytometry, cells or beads pass a laser one at a time.

Assay [12] addresses T1, human FAP expressed on cells …. Briefly: flow cytometry, FAP-CHO-K1 cells. Here is the method:
as §2

Assay [13] deals with T5, Biotinylated hLTBR-His-Avitag (Acro, cat no LTR-H82E9-25 µg) (human, UniProt P36941 31-227, biotinylated (Avitag)).
T5 construct: bought protein loaded on SA Streptavidin biosensors
Briefly: BLI (Octet), biotinylated LTBR on SA sensor, antibody as analyte. Here is the method: Briefly, Biotinylated hLTBR-His-Avitag (Acro, cat no LTR-H82E9-25 μg) was loaded on SA Streptavidin biosensors (Fortebio) in kinetics buffer (ForteBio) followed by a 2-fold dilution series starting at 50 nM of FAP/LTBR bispecific antibodies. Binding kinetics were studied in a 1× Kinetics buffer where the association was allowed for 100 seconds, followed by dissociation for 300 seconds. Data generated were referenced by subtracting a parallel buffer blank, the baseline was aligned with the y-axis, inter-step correlation by alignment against dissociation was performed, and the data were smoothed by a Savitzky-Golay filter in the data analysis software. The processed data were fitted using a 1:1 Langmuir binding model with R\hat{ }2 as a measurement of fitting accuracy. The KD and R\hat{ }2 values can be found in.

Assay [14] deals with cynomologus recombinant LTBR (Octet, Example 4.8) (cynomolgus (Macaca fascicularis), UniProt P36941 31-227 (human entry), limits assumed). The experiment in a line: BLI (Octet), cyno LTBR immobilised on ARG sensor, antibody at 25 nM. Here is the method: A 2-fold series dilution starting at 50 nM of cynomologus recombinant LTBR was immobilised on the surface of ARG biosensors (Fortebio), followed by FAP/LTBR bispecific at 25 nM. Binding kinetics were studied in a 1× Kinetics buffer where the association was allowed for 180 seconds, followed by dissociation for 100 seconds. Sensor tips were regenerated using ethylene glycol. Data generated were referenced by subtracting a parallel buffer blank, the baseline was aligned with the y-axis, inter-step correlation by alignment against dissociation was performed, and the data were smoothed by a Savitzky-Golay filter in the data analysis software. The processed data were fitted using a 1:1 Langmuir binding model with R\hat{ }2 as a measurement of fitting accuracy. The KD values can be found in.
Background: BLI is a label-free optical method that tracks binding on a fibre tip over time.

Assay [15] addresses T6, human FAP (Acro, cat no FAP-H82Q6) (human, UniProt Q12884 26-760).
T6 construct: 'FAP is naturally a dimeric antigen'
Briefly: BLI (Octet), antibody captured by anti-Fc, FAP as analyte; * value outside instrument specifications; avid binding to dimeric FAP; value flagged as outside instrument specifications. Here is the method:
Binding to recombinant FAP proteins was investigated by Bio-Layer Interferometry (BLI) using the Octet instrument. Using standard amine coupling chemistry, an anti-Fc antibody was immobilised on the surface of ARG biosensors (Fortebio). The FAP/LTBR bispecific antibodies were loaded on the previously coated surface with anti-Fc capture antibody, followed by a 2-fold series dilution starting at 50 nM of either cyno FAP (Acro, cat no FAP-C82Q5) or human FAP (Acro, cat no FAP-H82Q6). Binding kinetics were studied in a 1× Kinetics buffer where the association was allowed for 200 seconds, followed by dissociation for 400 seconds. Sensor tips were regenerated using 10 mM Glycine pH 2.0. Data generated were referenced by subtracting a parallel buffer blank, the baseline was aligned with the y-axis, inter-step correlation by alignment against dissociation was performed, and the data were smoothed by a Savitzky-Golay filter in the data analysis software. The processed data were fitted using a 1:1 Langmuir binding model with R\hat{ }2 as a measurement of fitting accuracy. The Results are summarised in. Avidity was observed as FAP is naturally a dimeric antigen, and the limited detection by Octet with these molecules has been reached. Species cross-reactivity has been confirmed for all test samples.

As usually defined, the EC50 is the concentration needed to bring the measured effect to its halfway point. One may read the Kd as a measure of binding affinity in units of concentration.

T4 sequence (P36941 31-435): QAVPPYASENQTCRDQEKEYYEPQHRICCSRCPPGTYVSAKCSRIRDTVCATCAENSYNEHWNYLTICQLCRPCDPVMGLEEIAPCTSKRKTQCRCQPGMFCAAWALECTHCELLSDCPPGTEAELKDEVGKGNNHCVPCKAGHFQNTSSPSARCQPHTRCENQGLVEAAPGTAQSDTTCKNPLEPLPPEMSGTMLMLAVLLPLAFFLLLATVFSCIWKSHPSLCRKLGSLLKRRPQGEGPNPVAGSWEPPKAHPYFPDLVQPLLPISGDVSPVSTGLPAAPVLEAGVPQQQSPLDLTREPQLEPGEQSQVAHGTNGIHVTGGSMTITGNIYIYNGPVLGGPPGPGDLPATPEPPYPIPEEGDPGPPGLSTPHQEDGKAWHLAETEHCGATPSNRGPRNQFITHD
T3 sequence (P50284 31-415): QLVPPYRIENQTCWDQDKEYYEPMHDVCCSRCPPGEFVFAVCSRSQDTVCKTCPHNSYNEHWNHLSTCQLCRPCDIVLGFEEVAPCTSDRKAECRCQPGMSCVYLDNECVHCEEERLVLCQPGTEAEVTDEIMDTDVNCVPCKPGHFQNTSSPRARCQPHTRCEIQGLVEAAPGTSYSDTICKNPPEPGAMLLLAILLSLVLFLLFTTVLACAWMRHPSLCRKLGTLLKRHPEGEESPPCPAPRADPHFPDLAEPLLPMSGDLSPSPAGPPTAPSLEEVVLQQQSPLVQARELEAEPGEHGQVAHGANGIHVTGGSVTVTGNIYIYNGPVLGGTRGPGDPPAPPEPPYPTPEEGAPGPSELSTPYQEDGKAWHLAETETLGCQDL
T5 sequence (P36941 31-227 limits assumed): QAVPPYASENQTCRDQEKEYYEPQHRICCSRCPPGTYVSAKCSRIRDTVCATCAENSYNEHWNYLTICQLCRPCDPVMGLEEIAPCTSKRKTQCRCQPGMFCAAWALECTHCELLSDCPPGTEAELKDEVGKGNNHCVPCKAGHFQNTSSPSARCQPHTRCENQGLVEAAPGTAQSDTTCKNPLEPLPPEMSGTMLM
Sequence of cynomologus recombinant LTBR (Octet, Example 4.8) (P36941 other isoform, or with tags, fused parts or gaps limits assumed): as the sequence (P36941 31-227 limits assumed) above, with A2V, A7G, Q24R, I45S, N163D, K181R, L184S, P186S counted along it

B1: Clone 3.3 (antibody, V domains shown)
VH: QVQLVQSGTEVKKPGASVKVSCKASGYTFTGYYMNWVRQAPGQGLEWVGWINPNSGDTNFAQKFQGRVTMTRDSSISTAYMELSRLRSDDTAVYYCARQFRGYSYGYGMDVWGKGTTVTVSS
VL: DIQMTQSPSSLSASVGDRVTITCRASQNIGSYLNWYQQKPGKAPKLLIYAASSLQSGVPSRFSGSGSGTDFTLTISSLQPEDFATYYCQQANSFPFTFGPGTKVDIK
notes: anti-FAP mAb (bivalent)
B1: the EC50 in [1] is 0.6 nM. Moreover, the dissociation constant (Kd) stood at 0.023 nM in [2] and 0.021 nM in assay [3].

B2: Clone 4.14 (antibody, V domains shown)
VH: QVQLKESGPGLVQPSQTLSLTCTVSGFSLTTYSVHWVRQHSGKSLEWMGRMWTDGDTSYNSAFTSRLSISRDTSKSQVFLKMNSLQTEDTGTYYCARGYWYFDFWGPGTMVTVSS
VL: DVQMTQSPSYLAASPGESVSIRCKASKSISNNLAWYQEKPGKANKLLIHSGSTLQSGTPSRFSGSGSGTDFTLTIRSLEFEDFAVYYCQQYNEYPYTFGAGTKLELK
B2: in assay [4], the “4T1:CHO-FAP co-culture CCL5 read-out EC50” value was 0.28 nM; the “4T1:CHO-FAP co-culture CCL5 read-out EC50, 4.14 + cross-linking antibody” value was 0.096 nM; the “4T1 monoculture CCL5 read-out EC50” value was determined as 0.47 nM; the “4T1 monoculture CCL5 read-out EC50, 4.14 + cross-linking antibody” value is 0.14 nM. For the same molecule, in assay [5], the “ICAM1 induction in PMLF EC50” value turned out to be 0.063 nM and the “ICAM1 induction in PMLF EC50, 4.14 + cross-linking antibody” value came out at 0.021 nM.

B3: Clone 4.1 (bispecific antibody, human IgG1, kappa, L234A L235A)
heavy 1: not shown
heavy 2: QLQLQESGPGLVKPSETLSLTCTVSGGSISSSTYYWGWIRQPPGKGLEWIGSIFYSGNTYYNPSLKSRVTISVDTSKNHFSLKLSSVTAADTAVYYCAREIIEPRPGYFDYWGQGTLVTVSSASTKGPSVFPLAPSSKSTSGGTAALGCLVKDYFPEPVTVSWNSGALTSGVHTFPAVLQSSGLYSLSSVVTVPSSSLGTQTYICNVNHKPSNTKVDKKVEPKSCDKTHTCPPCPAPEAAGGPSVFLFPPKPKDTLMISRTPEVTCVVVDVSHEDPEVKFNWYVDGVEVHNAKTKPREEQYNSTYRVVSVLTVLHQDWLNGKEYKCKVSNKALPAPIEKTISKAKGQPREPQVCTLPPSRDELTKNQVSLSCAVKGFYPSDIAVEWESNGQPENNYKTTPPVLDSDGSFFLVSKLTVDKSRWQQGNVFSCSVMHEALHNHYTQKSLSLSPG
light: not shown
notes: FAP:LTBR 1:1 heterodimer of LTBR VHH (clone 1.6) paired with FAP Fab (clone 3.5), human IgG1 LALA
Regarding B3, the “HepG2 Reporter assay, HepG2:FAP-CHO-K1 Co-culture EC50” value in assay [6] is 0.07 nM. For the same molecule, the “CCL19 upregulation, HCC1187:CAF Co-culture EC50” value in assay [7] is 0.055 nM. For the same molecule, the “ICAM1 upregulation in CAFs monoculture assay EC50” value in assay [8] came out at 0.026 nM. The “chemokine (CCL5) induction in RPMI-7951 EC50” value in [9] was 0.09 nM. In addition, in assay [10], the “HCC-1187:RPMI7951 (cis-activation) co-culture assay CCL5 read-out EC50” value is 0.052 nM. Besides, the “HCC-1187:RPMI7951 (trans-activation) co-culture assay, CCL19 Read-out EC50” value in [10] was determined as 0.084 nM. Moreover, the values for the concentration for a half-maximal effect (EC50) in assay [11] and in assay [12] were 29 nM and 0.28 nM, respectively. For the same molecule, the dissociation constant (Kd) came to 4 nM in assay [13], 7.7 nM in assay [14] and 0.182 nM in assay [15].
